Test results reported in patent publication US8114974B2, “Engineered microorganisms with enhanced fermentation activity” (Verdezyne, Inc., priority 2009, dated 2012).
Values joined by “and” are separate entries in the source; they are usually repeats but may differ in a detail not shown here. Equal entries are not always repeated.

Experiments:
xylose isomerase [1] = test: In vitro xylose isomerase activity assay (sorbitol dehydrogenase/NADH coupled, A340; Km, specific activity, Ki for xylitol); format: biochemical, Saccharomyces cerevisiae
Procedure: About 20 μg of soluble whole cell extract was incubated in the presence of 100 mM Tris, pH 7.5, 10 mM MgCl2, 0.15 mM NADH (Sigma, St. Louis, Mo.), and about 2 U sorbitol dehydrogenase (Roche) at about 30° C. […] A Beckman DU-800 was utilized with an Enzyme Mechanism software package (Beckman Coulter, Inc.), and the change in the A340 was monitored for 2-3 minutes.
Approximately 20 μg of soluble whole cell extract from each transformed cell line, prepared using Y-PER plus reagent as described above, was incubated in a solution containing about 100 mM Tris, pH 7.5, 10 mM MgCl ? 2, 0.15 mM NADH (Sigma, St. Louis, Mo.), and 2 U Sorbitol Dehydrogenase (SDH) (Roche, Indianapolis, Ind.) at about 30° C. […] A Beckman DU-800 spectrophotometer was utilized with an Enzyme Mechanism software package (Beckman Coulter, Inc, Brea, Calif.), and the change in the A340 was monitored for 2-3 minutes.
Approximately 20 μg of soluble whole cell extract from each transformed cell line was prepared using Y-PER plus reagent as described above was incubated in a solution containing about 100 mM Tris, pH 7.5, 10 mM MgCl2, 0.15 mM NADH (Sigma, St. Louis, Mo.), and 2 U sorbitol dehydrogenase (SDH) (Roche, Indianapolis, Ind.) at about 30° C. […] A Beckman DU-800 spectrophotometer was utilized with an Enzyme Mechanism software package (Beckman Coulter, Inc, Brea, Calif.), and the change in the A340 was monitored for 2-3 minutes.
Approximately 20 μg of soluble whole cell extract from each transformed cell line was prepared using Y-PER plus reagent as described above was incubated in a solution containing about 100 mM Tris, pH 7.5, 10 mM MgCl ? .2, 0.15 mM NADH (Sigma, St. Louis, Mo.), and 2 U Sorbitol Dehydrogenase (SDH) (Roche, Indianapolis, Ind.) at about 30° C. […] A Beckman DU-800 spectrophotometer was utilized with an Enzyme Mechanism software package (Beckman Coulter, Inc, Brea, Calif.), and the change in the A340 was monitored for 2-3 minutes.
The Clostridiales enzyme was further characterized at 1974 μg to confirm the presence of activity.

C5 strain = test: In vivo evaluation of xylose isomerase constructs in C5 strain, fermentation on xylose; format: cell-based, Saccharomyces cerevisiae; conditions: final sample at 372 hours
Text: The engineered strain was designed to include the following genetic modifications: the native Pho13 gene (alkaline phosphatase specific for p-nitrophenyl phosphate) was disrupted by inserting a construct containing the native TLK1 gene (Transketolase-1); the native aldose reductase gene (Gre3) was disrupted by inserting a construct containing the native high-affinity glucose transporter-7 gene (HXT7); the native glucose-repressible alcohol dehydrogenase II gene (adh2) was disrupted by inserting a construct containing the native xylulokinase gene (XYLK); and the native orotidine-5′ phosphate decarboxylase gene (ura3) was disrupted by inserting a construct containing the native transaldolase 1 gene (TAL1). The resulting strain had the following genotype: pho13::TKL1, gre3::HXT7, adh2::XYLK, ura3::TAL1.
The C5 strain was transformed using standard protocols with either p426GPD (as a control) or the chimeric variants XI-R, XI-Rp5, XI-Rp10, or XI-Rp15. The transformed cells were grown on SC-glucose minus uracil initially and then passaged onto SC-xylose minus uracil. Cultures of each of the above constructs were made in SC-xylose minus uracil—and grown for one week. The cultures were grown aerobically at 30° C. with 250 rpm agitation, 1 vvm sparge of process air, 21% O2. The pH was controlled at about 5.0 with 1N NaOH. […] At 24 hours elapsed fermentation time the fermentation was switched to anaerobic conditions.
Oxygen was purged with 100% N2 sparge at 1 vvm until percent O2 was below 1%. Aeration was then set at 0.25 vvm 100% N2.
The final sample also measured biomass by dry cell weight.

xylose isomerase [2] = test: Heterologous xylose isomerase expression in yeast (active yes/no); format: cell-based, Saccharomyces cerevisiae; conditions: xylose isomerase of the donor organism expressed in engineered yeast (S. cerevisiae)

B1: Ruminococcus flavefaciens: native xylose isomerase from Ruminococcus flavefaciens strain 17 (SEQ ID NO: 31) (protein, listed as Ruminococcus flavefaciens)
chain: MEFFSNIGKIQYQGPKSTDPLSFKYYNPEEVINGKTMREHLKFALSWWHTMGGDGTDMFGCGTTDKTWGQSDPAARAKAKVDAAFEIMDKLSIDYYCFHDRDLSPEYGSLKATNDQLDIVTDYIKEKQGDKFKCLWGTAKCFDHPRFMHGAGTSPSADVFAFSAAQIKKALESTVKLGGNGYVFWGGREGYETLLNTNMGLELDNMARLMKMAVEYGRSIGFKGDFYIEPKPKEPTKHQYDFDTATVLGFLRKYGLDKDFKMNIEANHATLAQHTFQHELRVARDNGVFGSIDANQGDVLLGWDTDQFPTNIYDTTMCMYEVIKAGGFTNGGLNFDAKARRGSFTPEDIFYSYIAGMDAFALGFRAALKLIEDGRIDKFVADRYASWNTGIGADIIAGKADFASLEKYALEKGEVTASLSSGRQEMLESIVNNVLFSL
Xylose isomerase [1]; soluble whole cell extract, xylose 40-500 mM, 30° C., pH 7.5
  Specific Activity: 1.718 µmol/min/mg
Xylose isomerase [1]; total soluble crude extracts from S. cerevisiae, xylose concentrations between 40 and 500 nM (so in the source), Michaelis Mentin plots
  Specific Activity: 0.9605 µmol/min/mg
C5 strain
  Glucose: 0 g/L
C5 strain; listed as XI-R
  Dry Cell Wt: 2.20 g/L and 2.03 g/L
  Ethanol: 15.65 g/L and 15.5 g/L
  Xylose: 3.14 g/L and 3.85 g/L
Xylose isomerase [2]
  Active? (yes/no): Yes
